Measured values: publication PMC5505994 (Scientific Reports, 2017)

B1: alkyl hydroperoxide reductase subunit C (AhpC) from Mycobacterium bovis (BCG strain), wild type (enzyme)
chain: MPLLTIGDQFPAYQLTALIGGDLSKVDAKQPGDYFTTITSDEHPGKWRVVFFWPKDFTFVCPTEIAAFSKLNDEFEDRDAQILGVSIDSEFAHFQWRAQHNDLKTLPFPMLSDIKRELSQAAGVLNADGVADRVTFIVDPNNEIQFVSATAGSVGRNVDEVLRVLDALQSDELCACNWRKGDPTLDAGELLKASA

Columns and labels:
SEC = target: the molecule itself; assay: SEC
[1] = target: the molecule itself; assay: negative-stain electron microscopy with 2D classification
[2] = target: B1; assay: NMR titration; conditions: both partners purified

| Binder | stoichiometry N (SEC) | stoichiometry N [1] | binding result [2] |
| --- | --- | --- | --- |
| B1 | 2 | 12 | – |
| Mycobacterium bovis thioredoxin TrxC (natural protein) MTDSEKSATIKVTDASFATDVLSSNKPVLVDFWATWCGPCKMVAPVLEEIATERATDLTVAKLDVDTNPETARNFQVVSIPTLILFKDGQPVKRIVGAKGKAALLRELSDVVPNLN | – | – | binds |
| MbAhpC with deletion of the loop residues 23 to 34 (enzyme) MPLLTIGDQFPAYQLTALIGGDFTTITSDEHPGKWRVVFFWPKDFTFVCPTEIAAFSKLNDEFEDRDAQILGVSIDSEFAHFQWRAQHNDLKTLPFPMLSDIKRELSQAAGVLNADGVADRVTFIVDPNNEIQFVSATAGSVGRNVDEVLRVLDALQSDELCACNWRKGDPTLDAGELLKASA | 2 | – | – |
